Like-named read-outs stand apart in the source and are kept apart here.
What was measured:
[1] = test system: Immunoglobulin E (human myeloma IgE) (Homo sapiens); conditions: nominal Kd, no asymptote reached; described as negligible binding; fluorescence bead binding assay
[2] = test system: Immunoglobulin E (human myeloma IgE) (Homo sapiens); conditions: fluorescence bead binding assay, 30 min incubation, wash, thermal elution at 95 C; monovalent binding assumed; enriched pool, individual sequences not given

Row | Sequence | Kd [1] [nM] | Kd [2] [nM]
1 | GCCTGTTGTGAGCCTCCTGTCGAANNNNNNNNNNNNNNNNNNNNNNNNNNNNNNNNNNNNNNNNNNNNNTTGAGCGTTTATTCTTGTCTCCC [randomized 45N library] | 620 | 
2 | GCCTGTTGTGAGCCTCCTGTCGAANNNNNNNNNNNNNNNNNNNNNNNNNNNNNNNNNNNNNNNNNNNNNTTGAGCGTTTATTCTTGTCTCCC [round-4 enriched IgE aptamer pool] |  | 12
